Experimental data taken from publication PMC13086497, “Heat shock factor regulation of antimicrobial peptides expression suggests a conserved defense mechanism induced by febrile temperature in arthropods”.

Biological target: T1, LvHSF1 (rLvHSF1-GST) (Litopenaeus vannamei, UniProt X2D760 1-632)
T1 sequence: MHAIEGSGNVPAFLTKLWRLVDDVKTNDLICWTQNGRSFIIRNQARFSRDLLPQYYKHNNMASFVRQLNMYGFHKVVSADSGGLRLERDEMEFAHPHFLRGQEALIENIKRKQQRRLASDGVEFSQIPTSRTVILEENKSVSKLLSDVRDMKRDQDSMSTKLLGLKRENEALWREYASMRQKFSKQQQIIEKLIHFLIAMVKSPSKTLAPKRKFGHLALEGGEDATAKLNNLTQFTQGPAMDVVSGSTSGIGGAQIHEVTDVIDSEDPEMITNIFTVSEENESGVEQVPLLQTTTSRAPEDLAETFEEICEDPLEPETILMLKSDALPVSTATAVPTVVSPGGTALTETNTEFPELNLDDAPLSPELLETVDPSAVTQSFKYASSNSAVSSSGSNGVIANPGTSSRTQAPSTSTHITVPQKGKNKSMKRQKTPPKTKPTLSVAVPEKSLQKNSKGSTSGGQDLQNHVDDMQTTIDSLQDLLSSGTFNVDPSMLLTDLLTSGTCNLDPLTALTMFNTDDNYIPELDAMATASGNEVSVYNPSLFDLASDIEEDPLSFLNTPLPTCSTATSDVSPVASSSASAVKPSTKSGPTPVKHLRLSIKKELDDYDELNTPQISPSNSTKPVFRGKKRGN
Assay: EMSA; EMSA: 10 ug recombinant protein, 20 fmol biotin probe, LightShift Chemiluminescent EMSA kit, 5% native PAGE; buffer, pH and temperature not stated
Conditions: blunt

[1] = chain copies: 3, label: biotin (labeled probe)

B1: SWD-Probe1 (dsDNA)
DNA 1: TACCACTAGGACTTTCTATAGAACCATCTTTGCTTCACTATAACA
DNA 2: TGTTATAGTGAAGCAAAGATGGTTCTATAGAAAGTCCTAGTGGTA
B1: binds [1].

B2: SWD-Probe2 (dsDNA)
DNA 1: GTTGGGATTTCCATGATGACTTTTCGAGGAATTAGTGGCTGCGTG
DNA 2: CACGCAGCCACTAATTCCTCGAAAAGTCATCATGGAAATCCCAAC
B2: binds [1].

B3: Mut-SWD-Probe1 (dsDNA)
DNA 1: TACCACTAGGACTTTCCAAACGGCCAGGTTTGCTTCACTATAACA
DNA 2: TGTTATAGTGAAGCAAACCTGGCCGTTTGGAAAGTCCTAGTGGTA
B3: no binding (chain copies: 3, label: biotin).
